Source: patent US20250154231A1
Like-named read-outs stand apart in the source and are kept apart here.

Columns and labels:
Experiment in all cases: cell-based or functional assay
[1] = target: SARS-CoV-2 Alpha (B.1.1.7) spike (S) protein (SARS-CoV-2) (UniProt P0DTC2)
[2] = target: SARS-CoV-2 Alpha spike (S) protein (SARS-CoV-2) (UniProt P0DTC2)
[3] = target: SARS-CoV-2 Beta (B.1.351) spike (S) protein (SARS-CoV-2) (UniProt P0DTC2)
[4] = target: SARS-CoV-2 Beta spike (S) protein (SARS-CoV-2) (UniProt P0DTC2)
[5] = target: SARS-CoV-2 Delta spike (S) protein (SARS-CoV-2) (UniProt P0DTC2)
[6] = target: SARS-CoV-2 Gamma (P.1) spike (S) protein (SARS-CoV-2) (UniProt P0DTC2)
[7] = target: SARS-CoV-2 Gamma spike (S) protein (SARS-CoV-2) (UniProt P0DTC2)
[8] = target: SARS-CoV-2 Omicron (BA.1) spike (S) protein, live virus isolate (SARS-CoV-2) (UniProt P0DTC2)
[9] = target: SARS-CoV-2 Omicron BA.1 spike (S) protein of the live isolate (SARS-CoV-2) (UniProt P0DTC2)
[10] = target: SARS-CoV-2 Omicron BA.1 spike (S) protein of the pseudovirus (SARS-CoV-2) (UniProt P0DTC2)
[11] = target: SARS-CoV-2 Omicron BA.1 spike (S) protein, pseudovirus construct (SARS-CoV-2) (UniProt P0DTC2)
[12] = target: SARS-CoV-2 Omicron BA.1.1 spike (S) protein (SARS-CoV-2) (UniProt P0DTC2)
[13] = target: SARS-CoV-2 Omicron BA.1.1 spike (S) protein, pseudovirus construct (SARS-CoV-2) (UniProt P0DTC2)
[14] = target: SARS-CoV-2 Omicron BA.2 spike (S) protein (SARS-CoV-2) (UniProt P0DTC2)
[15] = target: SARS-CoV-2 Omicron BA.2 spike (S) protein, pseudovirus construct (SARS-CoV-2) (UniProt P0DTC2)
[16] = target: SARS-CoV-2 Omicron BA.3 spike (S) protein (SARS-CoV-2) (UniProt P0DTC2)
[17] = target: SARS-CoV-2 Omicron BA.3 spike (S) protein, pseudovirus construct (SARS-CoV-2) (UniProt P0DTC2)
[18] = target: SARS-CoV-2 Omicron BA.4/5 spike (S) protein (SARS-CoV-2) (UniProt P0DTC2)
[19] = target: SARS-CoV-2 Victoria spike (S) protein (SARS-CoV-2) (UniProt P0DTC2)
[20] = target: SARS-CoV-2 spike (S) protein, Omicron BA.1 (SARS-CoV-2) (UniProt P0DTC2)
[21] = target: SARS-CoV-2 spike (S) protein, Omicron BA.1.1 (SARS-CoV-2) (UniProt P0DTC2)
[22] = target: SARS-CoV-2 spike (S) protein, Omicron BA.2 (SARS-CoV-2) (UniProt P0DTC2)
[23] = target: SARS-CoV-2 spike (S) protein, Omicron BA.2.75 (SARS-CoV-2) (UniProt P0DTC2)
[24] = target: SARS-CoV-2 spike (S) protein, Omicron BA.3 (SARS-CoV-2) (UniProt P0DTC2)
[25] = target: SARS-CoV-2 spike (S) protein, Omicron BA.4/5 (SARS-CoV-2) (UniProt P0DTC2)
[26] = target: SARS-CoV-2 spike (S) protein, Victoria strain (SARS-CoV-2) (UniProt P0DTC2)
[27] = target: SARS-CoV-2 spike (S) protein, Omicron BA.2 (SARS-CoV-2) (UniProt P0DTC2); remark: listed apart in the source
[28] = target: SARS-CoV-2 spike (S) protein, Omicron BA.2.75 (SARS-CoV-2) (UniProt P0DTC2); remark: listed apart in the source
[29] = target: SARS-CoV-2 spike (S) protein, Omicron BA.2 (SARS-CoV-2) (UniProt P0DTC2); remark: listed apart in the source
[30] = target: SARS-CoV-2 spike (S) protein, Omicron BA.2.3.20 (SARS-CoV-2) (UniProt P0DTC2)
[31] = target: SARS-CoV-2 spike (S) protein, Omicron BA.2.75 (SARS-CoV-2) (UniProt P0DTC2); remark: listed apart in the source
[32] = target: SARS-CoV-2 spike (S) protein, Omicron BA.2.75.2 (SARS-CoV-2) (UniProt P0DTC2)
[33] = target: SARS-CoV-2 spike (S) protein, Omicron BA.4.6 (SARS-CoV-2) (UniProt P0DTC2)
[34] = target: SARS-CoV-2 spike (S) protein, Omicron BA.4/5 (SARS-CoV-2) (UniProt P0DTC2); remark: listed apart in the source
[35] = target: SARS-CoV-2 spike (S) protein, Omicron BJ.1 (SARS-CoV-2) (UniProt P0DTC2)
[36] = target: SARS-CoV-2 spike (S) protein, Victoria strain (SARS-CoV-2) (UniProt P0DTC2); remark: listed apart in the source
[37] = target: SARS-CoV-2 spike (S) protein, Omicron BA.4.6 (SARS-CoV-2) (UniProt P0DTC2); remark: listed apart in the source
[38] = target: SARS-CoV-2 spike (S) protein, Omicron BA.2.75 (SARS-CoV-2) (UniProt P0DTC2); remark: listed apart in the source

Chain of Omi-18 (antibody) (VH): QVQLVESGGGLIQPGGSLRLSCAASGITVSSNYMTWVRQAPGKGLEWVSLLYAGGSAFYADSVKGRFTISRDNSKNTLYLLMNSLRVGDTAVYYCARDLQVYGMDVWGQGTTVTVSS
Chain of Omi-18 (antibody) (VL): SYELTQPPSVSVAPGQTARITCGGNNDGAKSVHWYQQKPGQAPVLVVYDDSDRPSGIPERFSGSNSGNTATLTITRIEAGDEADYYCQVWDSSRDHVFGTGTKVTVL
Chain of Omi-12 (antibody) (VH): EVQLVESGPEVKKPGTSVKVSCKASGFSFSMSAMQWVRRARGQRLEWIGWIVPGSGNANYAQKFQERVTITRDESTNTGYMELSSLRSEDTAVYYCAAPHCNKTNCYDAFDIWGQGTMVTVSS
Chain of Omi-12 (antibody) (VL): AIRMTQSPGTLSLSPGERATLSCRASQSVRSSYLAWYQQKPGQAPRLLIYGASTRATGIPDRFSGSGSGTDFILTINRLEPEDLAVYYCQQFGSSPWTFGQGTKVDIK

Omi-18 (antibody)
Authentic virus-IC50 [1]: 38 ng/mL | IC50, authentic virus neutralization [2]: 38 ng/mL | Authentic virus-IC50 [3]: 18 ng/mL | IC50, authentic virus neutralization [4]: 18 ng/mL | Authentic virus-IC50 [5]: 25 ng/mL | IC50, authentic virus neutralization [5]: 25 ng/mL | Authentic virus-IC50 [6]: 16 ng/mL | IC50, authentic virus neutralization [7]: 16 ng/mL | Authentic virus-IC50 [8]: 6 ng/mL | IC50, authentic virus neutralization [9]: 6 ng/mL | IC50, pseudovirus neutralization [10]: 2 ng/mL | Pseudovirus - IC50 [11]: 2 ng/mL | IC50, authentic virus neutralization [12]: 6 ng/mL | IC50, pseudovirus neutralization [12]: 2 ng/mL | Pseudovirus - IC50 [13]: 2 ng/mL | IC50, authentic virus neutralization [14]: 7 ng/mL | IC50, pseudovirus neutralization [14]: 5 ng/mL | Pseudovirus - IC50 [15]: 5 ng/mL | IC50, pseudovirus neutralization [16]: 6 ng/mL | Pseudovirus - IC50 [17]: 6 ng/mL | IC50, pseudovirus neutralization [18]: 5 ng/mL | Authentic virus-IC50 [19]: 41 ng/mL | IC50, authentic virus neutralization [19]: 41 ng/mL | IC50, pseudovirus neutralization [19]: 8 ng/mL | Pseudovirus - IC50 [19]: 8 ng/mL | pseudovirus neutralisation IC50 [20]: 2 ng/mL | pseudovirus neutralisation IC50 [21]: 2 ng/mL | pseudovirus neutralisation IC50 [22]: 5 ng/mL | pseudovirus neutralisation IC50 [23]: 35 ng/mL | pseudovirus neutralisation IC50 [24]: 6 ng/mL | pseudovirus neutralisation IC50 [25]: 5 ng/mL | pseudovirus neutralisation IC50 [26]: 8 ng/mL | pseudovirus neutralisation IC50 [27]: 5 ng/mL | pseudovirus neutralisation IC50 [28]: 35 ng/mL | IC50, pseudoviral neutralization [29]: 5 ng/mL | IC50, pseudoviral neutralization [30]: 11 ng/mL | IC50, pseudoviral neutralization [31]: 35 ng/mL | IC50, pseudoviral neutralization [32]: 4800 ng/mL | IC50, pseudoviral neutralization [33]: 6 ng/mL | IC50, pseudoviral neutralization [34]: 5 ng/mL | IC50, pseudoviral neutralization [35]: 5 ng/mL | IC50, pseudoviral neutralization [36]: 8 ng/mL

Omi-03 (antibody)
Authentic virus-IC50 [1]: 12 ng/mL | IC50, authentic virus neutralization [2]: 12 ng/mL | Authentic virus-IC50 [3]: 9 ng/mL | IC50, authentic virus neutralization [4]: 9 ng/mL | Authentic virus-IC50 [5]: 4 ng/mL | IC50, authentic virus neutralization [5]: 4 ng/mL | Authentic virus-IC50 [6]: 4 ng/mL | IC50, authentic virus neutralization [7]: 4 ng/mL | Authentic virus-IC50 [8]: 9 ng/mL | IC50, authentic virus neutralization [9]: 9 ng/mL | IC50, pseudovirus neutralization [10]: 5 ng/mL | Pseudovirus - IC50 [11]: 5 ng/mL | IC50, authentic virus neutralization [12]: 15 ng/mL | IC50, pseudovirus neutralization [12]: 3 ng/mL | Pseudovirus - IC50 [13]: 3 ng/mL | IC50, authentic virus neutralization [14]: 28 ng/mL | IC50, pseudovirus neutralization [14]: 8 ng/mL | Pseudovirus - IC50 [15]: 8 ng/mL | IC50, pseudovirus neutralization [16]: 22 ng/mL | Pseudovirus - IC50 [17]: 22 ng/mL | IC50, pseudovirus neutralization [18]: 17 ng/mL | Authentic virus-IC50 [19]: 7 ng/mL | IC50, authentic virus neutralization [19]: 7 ng/mL | IC50, pseudovirus neutralization [19]: 3 ng/mL | Pseudovirus - IC50 [19]: 3 ng/mL | pseudovirus neutralisation IC50 [20]: 5 ng/mL | pseudovirus neutralisation IC50 [21]: 3 ng/mL | pseudovirus neutralisation IC50 [22]: 8 ng/mL | pseudovirus neutralisation IC50 [23]: 17 ng/mL | pseudovirus neutralisation IC50 [24]: 22 ng/mL | pseudovirus neutralisation IC50 [25]: 17 ng/mL | pseudovirus neutralisation IC50 [26]: 3 ng/mL | pseudovirus neutralisation IC50 [27]: 8 ng/mL | pseudovirus neutralisation IC50 [28]: 17 ng/mL | IC50, pseudoviral neutralization [29]: 8 ng/mL | IC50, pseudoviral neutralization [30]: 20 ng/mL | IC50, pseudoviral neutralization [31]: 17 ng/mL | IC50, pseudoviral neutralization [32]: 546 ng/mL | IC50, pseudoviral neutralization [33]: 6 ng/mL | IC50, pseudoviral neutralization [34]: 17 ng/mL | IC50, pseudoviral neutralization [35]: 14 ng/mL | IC50, pseudoviral neutralization [36]: 3 ng/mL

Omi-12 (antibody)
Authentic virus-IC50 [1]: 3 ng/mL | IC50, authentic virus neutralization [2]: 3 ng/mL | Authentic virus-IC50 [3]: 6 ng/mL | IC50, authentic virus neutralization [4]: 6 ng/mL | Authentic virus-IC50 [5]: 3 ng/mL | IC50, authentic virus neutralization [5]: 3 ng/mL | Authentic virus-IC50 [6]: 3 ng/mL | IC50, authentic virus neutralization [7]: 3 ng/mL | Authentic virus-IC50 [8]: 4 ng/mL | IC50, authentic virus neutralization [9]: 4 ng/mL | IC50, pseudovirus neutralization [10]: 2 ng/mL | Pseudovirus - IC50 [11]: 2 ng/mL | IC50, authentic virus neutralization [12]: 9 ng/mL | IC50, pseudovirus neutralization [12]: 2 ng/mL | Pseudovirus - IC50 [13]: 2 ng/mL | IC50, authentic virus neutralization [14]: 10 ng/mL | IC50, pseudovirus neutralization [14]: 3 ng/mL | Pseudovirus - IC50 [15]: 3 ng/mL | IC50, pseudovirus neutralization [16]: 6 ng/mL | Pseudovirus - IC50 [17]: 6 ng/mL | IC50, pseudovirus neutralization [18]: 429 ng/mL | Authentic virus-IC50 [19]: 5 ng/mL | IC50, authentic virus neutralization [19]: 5 ng/mL | IC50, pseudovirus neutralization [19]: 6 ng/mL | Pseudovirus - IC50 [19]: 6 ng/mL | pseudovirus neutralisation IC50 [20]: 2 ng/mL | pseudovirus neutralisation IC50 [21]: 2 ng/mL | pseudovirus neutralisation IC50 [22]: 3 ng/mL | pseudovirus neutralisation IC50 [23]: 3 ng/mL | pseudovirus neutralisation IC50 [24]: 6 ng/mL | pseudovirus neutralisation IC50 [25]: 429 ng/mL | pseudovirus neutralisation IC50 [26]: 6 ng/mL | pseudovirus neutralisation IC50 [27]: 3 ng/mL | pseudovirus neutralisation IC50 [28]: 3 ng/mL | IC50, pseudoviral neutralization [29]: 3 ng/mL | IC50, pseudoviral neutralization [30]: 8 ng/mL | IC50, pseudoviral neutralization [31]: 3 ng/mL | IC50, pseudoviral neutralization [32]: > 10000 ng/mL | IC50, pseudoviral neutralization [33]: 74 ng/mL | IC50, pseudoviral neutralization [34]: 429 ng/mL | IC50, pseudoviral neutralization [35]: 4 ng/mL | IC50, pseudoviral neutralization [36]: 6 ng/mL

REGN10933 (antibody)
IC50, authentic virus neutralization [2]: 14 ng/mL | IC50, authentic virus neutralization [4]: 3280 ng/mL | IC50, authentic virus neutralization [5]: 3 ng/mL | IC50, authentic virus neutralization [7]: 6180 ng/mL | IC50, authentic virus neutralization [9]: > 10000 ng/mL | IC50, authentic virus neutralization [12]: > 10000 ng/mL | IC50, authentic virus neutralization [14]: > 10000 ng/mL | IC50, authentic virus neutralization [19]: 4 ng/mL | IC50, pseudoviral neutralization [20]: > 10000 ng/mL | pseudovirus neutralisation IC50 [20]: > 10000 ng/mL | IC50, pseudoviral neutralization [21]: > 10000 ng/mL | pseudovirus neutralisation IC50 [21]: > 10000 ng/mL | IC50, pseudoviral neutralization [22]: > 10000 ng/mL | pseudovirus neutralisation IC50 [22]: > 10000 ng/mL | IC50, pseudoviral neutralization [24]: > 10000 ng/mL | pseudovirus neutralisation IC50 [24]: > 10000 ng/mL | IC50, pseudoviral neutralization [37]: > 10000 ng/mL | IC50, pseudoviral neutralization [25]: > 10000 ng/mL | pseudovirus neutralisation IC50 [25]: > 10000 ng/mL | IC50, pseudoviral neutralization [26]: 1 ng/mL | pseudovirus neutralisation IC50 [26]: 1 ng/mL | pseudovirus neutralisation IC50 [38]: > 10000 ng/mL | IC50, pseudoviral neutralization [29]: > 10000 ng/mL | IC50, pseudoviral neutralization [30]: 8620 ng/mL | IC50, pseudoviral neutralization [31]: > 10000 ng/mL | IC50, pseudoviral neutralization [32]: > 10000 ng/mL | IC50, pseudoviral neutralization [33]: > 10000 ng/mL | IC50, pseudoviral neutralization [34]: > 10000 ng/mL | IC50, pseudoviral neutralization [35]: > 10000 ng/mL | IC50, pseudoviral neutralization [36]: 1 ng/mL
